Laboratory results: the supplement of paper PMC7125110
± gives the standard error. Fewer inactive variants are shown than the library holds.

B1: glmS ribozyme (parent)
chain: AUAAAAGCGCCAGAACUACAGAAAUGUAGUUGACGAGGAGGAGGUUUAUCGAAUUUUCGGCGGAUGCCUCCAAA

Variants of: B1
Assay: self-cleavage kobs at 10000 uM GlcN6P; higher = faster cleavage; RNA array
Details: with glucosamine-6-phosphate
How it was run: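 Tracking of barcoded ribozyme variants used a hybridised Cy3 probe at 37 °C, after in situ transcription by E. coli RNA polymerase on sequenced MiSeq chips. The flowed solution held 40 μM to 10 mM glucosamine-6-phosphate in HEPES/KCl/Mg(OAc)2 buffer, and imaging ran over ~14 h. kobs was taken from exponential decay fits of normalised per-tile medians, and kcat and KM from weighted Michaelis–Menten fits.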

Variant	self-cleavage kobs at 10000 uM GlcN6P
C8G C10U U54G	< 1e-05 s⁻¹
G13C C67U C68G	< 1e-05 s⁻¹
A12C G29U U69G	3.54e-05 ± 1.6e-05 s⁻¹
A12G U30G C58A	0.000483 ± 9.8e-05 s⁻¹
U49G C61G	< 1e-05 s⁻¹
C16G C50G A52C U55A C70U	4.88e-05 ± 1.9e-05 s⁻¹
A15U G43A A64U C68G	< 1e-05 s⁻¹
G9C U46A C58U	< 1e-05 s⁻¹
C8U U45G C50U U65C	< 1e-05 s⁻¹
U47A C67U C71U	0.000453 ± 0.00017 s⁻¹
U56G G60C	< 1e-05 s⁻¹
C50G A53C C71A	6.73e-05 ± 2.7e-05 s⁻¹
U49A C61A	< 1e-05 s⁻¹
A6G U54A U56A	0.000141 ± 2.8e-05 s⁻¹
G29U A53C G60A	< 1e-05 s⁻¹
C8A C50G U54G C68U	6.41e-05 ± 2.3e-05 s⁻¹
G13U C16U A53U G62U	< 1e-05 s⁻¹
U31G G38U A53U	< 1e-05 s⁻¹
C16A G29U U45G	0.0036 ± 0.00061 s⁻¹
A14U A42U U57C	< 1e-05 s⁻¹
G37A U54A G66U	0.000359 ± 8.7e-05 s⁻¹
A15U C58U G59U	< 1e-05 s⁻¹
G29C G44A C58G	< 1e-05 s⁻¹
A14U A36G A64G C70G	< 1e-05 s⁻¹
A12U A42G C58G	0.00079 ± 0.00015 s⁻¹
A14U A36U C50U C70A	7.4e-05 ± 2.1e-05 s⁻¹

Variant	self-cleavage kobs at 10000 uM GlcN6P
A12G G37A G43A A52G	< 1e-05 s⁻¹
A15C C16A G37U G40U G62U C70A	< 1e-05 s⁻¹
G38A G43C U65G	< 1e-05 s⁻¹
A14C G35C G38U C61U G63U U65A C71G	< 1e-05 s⁻¹
A14C G44C A52C U65A	< 1e-05 s⁻¹
C8G G43U G51U U54G	< 1e-05 s⁻¹
A12G A14C A15G	0.000141 ± 3e-05 s⁻¹
G38A A42G U49A	< 1e-05 s⁻¹
A12G G63C C70U	< 1e-05 s⁻¹
C11U C34G G51A A52U C68G	0.000563 ± 0.00022 s⁻¹
C10A A14G G32U A48C G59A	< 1e-05 s⁻¹
G29C A64G C70U	3.15e-05 ± 1.4e-05 s⁻¹
G13A G32C U69G	5.76e-05 ± 2.1e-05 s⁻¹
A14G C16A G29C A53G	0.000885 ± 0.00021 s⁻¹
C34A G41A C68G	< 1e-05 s⁻¹
A33G A42G G59U C61A	< 1e-05 s⁻¹
U57G G62C	< 1e-05 s⁻¹
C58U G59A	< 1e-05 s⁻¹
C50A G59C C70U	< 1e-05 s⁻¹
U46A C50A G59U	< 1e-05 s⁻¹
A12G G29A U46C	6.56e-05 ± 1.2e-05 s⁻¹
A6U G44U C71A	< 1e-05 s⁻¹
G7C G32C G41C	< 1e-05 s⁻¹
A39U A52G C67G	0.00016 ± 3.6e-05 s⁻¹
A36G A53C C67A	< 1e-05 s⁻¹
A36C C61A	< 1e-05 s⁻¹

Variant	self-cleavage kobs at 10000 uM GlcN6P
G43A C71G	< 1e-05 s⁻¹
C10A C50U G59A	< 1e-05 s⁻¹
G9U A36G G43U U55G C68U	< 1e-05 s⁻¹
U31A A33G C67A	< 1e-05 s⁻¹
C16U G32A U57C	2.6e-05 ± 1.3e-05 s⁻¹
C11G G13U G37C	< 1e-05 s⁻¹
U47G G59A	3.68e-05 ± 1.3e-05 s⁻¹
G40A C67A C70A	0.0001 ± 2.9e-05 s⁻¹
C8G C58U C61U	< 1e-05 s⁻¹
C11A U54G A64G U69G	9.78e-05 ± 2.2e-05 s⁻¹
A12U A14G U57A	0.000643 ± 0.00011 s⁻¹
A6U C11G G41C G62A G66U	< 1e-05 s⁻¹
C34A G63U C70A	< 1e-05 s⁻¹
G59C G63C C70A	< 1e-05 s⁻¹
A42C G44U G66U	< 1e-05 s⁻¹
C10G G32U G44A U54A C68A	< 1e-05 s⁻¹
A15G A53U U69G	5.88e-05 ± 1.8e-05 s⁻¹
A14U A15C C68U	6.11e-05 ± 2e-05 s⁻¹
C16A G29U C58A	0.000415 ± 0.00011 s⁻¹
U30C G40A U56A G62C	< 1e-05 s⁻¹
C10A A15C A42C U55G C68U	< 1e-05 s⁻¹
U31G A36U G40C U56G G66A	< 1e-05 s⁻¹
G40A C58A	7.56e-05 ± 1.6e-05 s⁻¹
G21U G41C C70U	0.000298 ± 8.1e-05 s⁻¹
A14C U30A U47G C70U	8.66e-05 ± 1.4e-05 s⁻¹
